These are literature values, as cited in publication doi:10.1101/2023.01.13.523947.

This data set has as its system 35I9 anti-DNA mAb (Mus musculus (NZWxNZB F1)).

In the case of ssDNA (cited Kd), the Kd is 710 nM.

For dsDNA (cited Kd), the Kd was 90 nM.
